Data reported in article PMC7992120 (2018).

Biological target: linearized DAKD (N-methyl F6) (Homo sapiens, backbone amide N-methylation at F6 of peptide)
Test: radioligand competition binding

B1: B1 bradykinin receptor (B1R) (protein)
chain: MASSWPPLELQSSNQSQLFPQNATACDNAPEAWDLLHRVLPTFIISICFFGLLGNLFVLLVFLLPRRQLNVAEIYLANLAASDLVFVLGLPFWAENIWNQFNWPFGALLCRVINGVIKANLFISIFLVVAISQDRYRVLVHPMASRRQQRRRQARVTCVLIWVVGGLLSIPTFLLRSIQAVPDLNITACILLLPHEAWHFARIVELNILGFLLPLAAIVFFNYHILASLRTREEVSRTRCGGRKDSKTTALILTLVVAFLVCWAPYHFFAFLEFLFQVQAVRGCFWEDFIDLGLQLANFFAFTNSSLNPVIYVFVGRLFRTKVWELYKQCTPKSLAPISSSHRKEIFQLFWRN
- Ki: 2030 nM
